Consider 36 sequences from the supplement of paper PMC10567573.

The nature of the series: protein stability index of a GFP-peptide fusion (GPS, HEK-293T) (PSI 1-6); higher = more stable. Particulars: c terminus: a fixed tail appended.

± gives the standard deviation.
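Further: 24-mer peptide tiles fused after GFP, lentivirally expressed, FACS-sorted into six equal bins by GFP/DsRed ratio, decoded by Illumina sequencing, PSI is the read-weighted mean bin number.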

With QTRMAVSLTAAETLALQGTQGQEK [ZNF232], the protein stability index is, setting by setting: (treatment: DMSO) 5.15 ± 0.24; (treatment: MLN4924 1 uM, 8 h) 4.98 ± 0.21.

Take QVADINDNPPTFSQVSYFTYIPEN [PCDHGA10]: the protein stability index (treatment: DMSO) turned out to be 2.98 ± 0.32 and the protein stability index (treatment: MLN4924 1 uM, 8 h) was determined as 3.09 ± 0.3.

For QVKFGQQNPRQVAQSEAEKKLKKD [ZC3H15], the protein stability index runs as follows: (treatment: DMSO) 5.37 ± 0.25; (treatment: MLN4924 1 uM, 8 h) 5.37 ± 0.076.

QVMVSGPNLNETSIVSGGYGGSGD [ARFIP2]: the protein stability index (treatment: DMSO) was determined as 4.24 ± 0.29 and the protein stability index (treatment: MLN4924 1 uM, 8 h) came out at 4.41 ± 0.41.

As for QVQSLITNVESQLAEIRCDLERQN [KRT34], the protein stability index reads like this: (treatment: DMSO) 3.43 ± 0.21; (treatment: MLN4924 1 uM, 8 h) 3.66 ± 0.33.

For the sequence RAARDYKIQNHGHRVLQRLEQRRQ [FCHSD1], the protein stability index came to 3.82 ± 0.079 (treatment: DMSO) and 4.07 ± 0.26 (treatment: MLN4924 1 uM, 8 h).

In turn, RAEQDSEVGPQEINKEELEGNSMR [GMCL1] gave a protein stability index (treatment: DMSO) of 5.6 ± 0.26 and a protein stability index (treatment: MLN4924 1 uM, 8 h) of 5.63 ± 0.14.

With RAQMIRNEYRKLHPVLHKEEKQHL [TRIM43], the protein stability index came out at 3 ± 0.37 (treatment: DMSO) and 3.73 ± 0.2 (treatment: MLN4924 1 uM, 8 h).

For the sequence RDVALQIHFTLIQAFCCENDINIL [GADD45A], the protein stability index came to 2.92 ± 0.52 (treatment: DMSO) and 2.94 ± 0.59 (treatment: MLN4924 1 uM, 8 h).

As to REEERPLPRRDFQRQVWLLFEYPE [KCNA3], the protein stability index (treatment: DMSO) was 2.64 ± 0.43 and the protein stability index (treatment: MLN4924 1 uM, 8 h) was determined as 2.67 ± 0.37.

RELEEYRREVERKQKGSEENLDEA [ADD1] displayed a protein stability index (treatment: DMSO) of 5.57 ± 0.24 and a protein stability index (treatment: MLN4924 1 uM, 8 h) of 5.61 ± 0.17.

Consider REPPQAVSIKEAAGSSNLPAPERT [VENTX], for which the protein stability index by setting is: (treatment: DMSO) 5.26 ± 0.3; (treatment: MLN4924 1 uM, 8 h) 5.2 ± 0.54.

As to REPVTKAEMLGSVVGNWQYFFPVI [MAGEA3], the protein stability index reads like this: (treatment: DMSO) 2.17 ± 0.18; (treatment: MLN4924 1 uM, 8 h) 2.25 ± 0.27.

For the sequence RETYPRTPYVRWNYVAKNFAQALG [SOAT2], the protein stability index is 2.34 ± 0.34 (treatment: DMSO) and 2.17 ± 0.38 (treatment: MLN4924 1 uM, 8 h).

Regarding RFNRIGLPPKVGSFQLFVEGYKDA [PI4K2A], the protein stability index stood at 2.39 ± 0.29 (treatment: DMSO) and 2.77 ± 0.51 (treatment: MLN4924 1 uM, 8 h).

With RFSSGGACGLGGGYGGGFSSSSSF [KRT16], the protein stability index is, setting by setting: (treatment: DMSO) 2.38 ± 0.64; (treatment: MLN4924 1 uM, 8 h) 2.1 ± 0.35.

In turn, RFVPSNPIGILTTSYCELLQNKVP [PPTC7] gave a protein stability index (treatment: DMSO) of 2.57 ± 0.29 and a protein stability index (treatment: MLN4924 1 uM, 8 h) of 2.51 ± 0.18.

Consider RGFQEENKALWENNKLKLQQKLVI [CBY2], for which the protein stability index is, setting by setting: (treatment: DMSO) 3 ± 0.29; (treatment: MLN4924 1 uM, 8 h) 3.15 ± 0.43.

For the sequence RGNHESRQITQVYGFYDECLRKYG [PPP2CA], the protein stability index runs as follows: (treatment: DMSO) 2.75 ± 0.4; (treatment: MLN4924 1 uM, 8 h) 2.59 ± 0.19.

In the case of RGNPELARLRPGLAVLGADERIFS [HAGHL], the protein stability index was 3.42 ± 0.47 (treatment: DMSO) and 3.65 ± 0.14 (treatment: MLN4924 1 uM, 8 h).

With RGRYRQYNSEILEEAISVVMSGKM [LCOR], the protein stability index worked out at 2.54 ± 0.23 (treatment: DMSO) and 2.71 ± 0.29 (treatment: MLN4924 1 uM, 8 h).

As to RHLDFHVKDLIKKLLVVDRTRRLG [PRKX], the protein stability index came to 2.57 ± 0.042 (treatment: DMSO) and 2.41 ± 0.36 (treatment: MLN4924 1 uM, 8 h).

Take RIFAQYMVPHNLETTERMKCLYYL [PDS5B]: the protein stability index stood at 2.91 ± 0.62 (treatment: DMSO) and 2.36 ± 0.43 (treatment: MLN4924 1 uM, 8 h).

With RIPGAWSCAWSLNIQANNCFSTGL [DCAF4], the protein stability index runs as follows: (treatment: DMSO) 2.76 ± 0.94; (treatment: MLN4924 1 uM, 8 h) 2.69 ± 0.6.

Turning to RIPTCHDKPGTTQIVQLTQQVDTN [DENND6A], the protein stability index is 4.6 ± 0.14 (treatment: DMSO) and 4.59 ± 0.14 (treatment: MLN4924 1 uM, 8 h).

Regarding RKHIIEGLKASLERLQLEYVDVVF [KCNAB2], the protein stability index reads like this: (treatment: DMSO) 2.94 ± 0.58; (treatment: MLN4924 1 uM, 8 h) 3 ± 0.53.

Turning to RKKDKTWMHTPEALSKHFIPYNAK [GULP1], the protein stability index by setting is: (treatment: DMSO) 2.82 ± 0.25; (treatment: MLN4924 1 uM, 8 h) 2.99 ± 0.47.

Take RKMSLLKFLAKVNGSDPRSFPLWY [MAGEA10]: the protein stability index was determined as 2.38 ± 0.63 (treatment: DMSO) and 2.01 ± 0.22 (treatment: MLN4924 1 uM, 8 h).

Take RKSMLDAGPDSWGSDAEQSTSGQP [LCOR]: the protein stability index was determined as 5.21 ± 0.091 (treatment: DMSO) and 5.15 ± 0.24 (treatment: MLN4924 1 uM, 8 h).

With RLCLVCGDIASGYHYGVASCEACK [ESRRG], the protein stability index came to 4.15 ± 0.12 (treatment: DMSO) and 4.21 ± 0.18 (treatment: MLN4924 1 uM, 8 h).

Turning to RLHLAFKRQVPTEQARAYAEKNCM [RAB40C], the protein stability index by setting is: (treatment: DMSO) 2.98 ± 0.15; (treatment: MLN4924 1 uM, 8 h) 3.1 ± 0.26.

Regarding RLKRTRLGLDDFESLKVIGRGAFG [STK38L], the protein stability index is, setting by setting: (treatment: DMSO) 2.49 ± 0.22; (treatment: MLN4924 1 uM, 8 h) 2.7 ± 0.31.

With RLPCSFVTLALLGSYTVQSELGDY [EPB41L3], the protein stability index stood at 2.91 ± 0.56 (treatment: DMSO) and 2.48 ± 0.35 (treatment: MLN4924 1 uM, 8 h).

As to RLPESVERLTGVSISQVNHKPLRT [FLOT1], the protein stability index runs as follows: (treatment: DMSO) 4.06 ± 0.13; (treatment: MLN4924 1 uM, 8 h) 4.16 ± 0.32.

RLPTDSHFPYDLHLRSQSLTMQDE [NEUROD6]: the protein stability index reads like this: (treatment: DMSO) 4.32 ± 0.14; (treatment: MLN4924 1 uM, 8 h) 4.34 ± 0.16.

Sequence RLSTSPVRLAARQEDAPMIEPLVP [EPB41L3] registered a protein stability index (treatment: DMSO) of 4.6 ± 0.18 and a protein stability index (treatment: MLN4924 1 uM, 8 h) of 4.63 ± 0.43.
